Laboratory results published in article PMC8791637.
Blank lines part the entries; values can stand above or below the substance they belong to.

What was measured:
Focal adhesion kinase [1] = target: Focal adhesion kinase (UniProt Q05397)
N-WASP = N-WASP (UniProt O00401)
Nck = Nck (UniProt P16333)
phosphorylated Nephrin = phosphorylated Nephrin (UniProt O60500)
Focal adhesion kinase [2] = target: Focal adhesion kinase (UniProt Q05397); remark: listed apart in the source
His6-sumo-kindlin = His6-sumo-kindlin (UniProt Q96AC1)
His6-sumo-kindlin (UniProt Q96AC1), sequence (Q96AC1 whole entry): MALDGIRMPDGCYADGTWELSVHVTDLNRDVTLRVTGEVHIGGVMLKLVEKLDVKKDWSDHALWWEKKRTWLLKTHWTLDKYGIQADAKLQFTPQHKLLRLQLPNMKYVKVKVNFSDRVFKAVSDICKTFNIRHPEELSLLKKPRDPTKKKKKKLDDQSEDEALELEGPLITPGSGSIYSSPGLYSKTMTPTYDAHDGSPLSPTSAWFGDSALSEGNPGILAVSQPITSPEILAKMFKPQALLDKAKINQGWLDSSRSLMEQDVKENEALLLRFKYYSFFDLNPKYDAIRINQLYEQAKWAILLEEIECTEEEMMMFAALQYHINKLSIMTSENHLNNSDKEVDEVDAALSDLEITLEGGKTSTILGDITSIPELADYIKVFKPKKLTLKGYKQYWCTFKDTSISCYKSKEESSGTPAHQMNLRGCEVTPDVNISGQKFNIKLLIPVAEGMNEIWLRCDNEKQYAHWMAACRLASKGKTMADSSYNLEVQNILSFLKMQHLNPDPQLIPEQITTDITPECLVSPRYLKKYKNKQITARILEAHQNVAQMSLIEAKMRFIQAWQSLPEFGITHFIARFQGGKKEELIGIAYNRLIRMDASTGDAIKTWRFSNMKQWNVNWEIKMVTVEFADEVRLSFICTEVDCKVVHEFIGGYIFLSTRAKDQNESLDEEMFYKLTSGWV

His6-sumo-kindlin (from UniProt Q96AC1 1-680) (natural protein), sequence (Q96AC1 whole entry): as above
Paxillin, sequence (P49023 whole entry): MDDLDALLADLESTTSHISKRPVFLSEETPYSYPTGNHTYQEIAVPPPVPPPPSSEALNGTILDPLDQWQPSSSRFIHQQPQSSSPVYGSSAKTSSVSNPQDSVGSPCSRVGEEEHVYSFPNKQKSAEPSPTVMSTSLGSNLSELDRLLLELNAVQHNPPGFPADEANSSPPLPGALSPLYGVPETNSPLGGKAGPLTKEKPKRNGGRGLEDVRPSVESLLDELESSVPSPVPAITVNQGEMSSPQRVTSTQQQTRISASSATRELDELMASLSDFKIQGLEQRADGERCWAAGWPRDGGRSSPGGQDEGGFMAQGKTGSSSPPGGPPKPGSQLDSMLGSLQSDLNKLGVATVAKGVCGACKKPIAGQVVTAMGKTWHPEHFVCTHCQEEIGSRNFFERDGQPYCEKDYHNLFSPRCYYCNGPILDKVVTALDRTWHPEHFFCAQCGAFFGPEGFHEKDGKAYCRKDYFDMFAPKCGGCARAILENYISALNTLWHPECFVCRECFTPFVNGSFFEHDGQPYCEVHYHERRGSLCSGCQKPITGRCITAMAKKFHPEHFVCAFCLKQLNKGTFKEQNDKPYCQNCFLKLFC
β1 integrin cytoplasmic tail-GFP, sequence (P05556 752-798): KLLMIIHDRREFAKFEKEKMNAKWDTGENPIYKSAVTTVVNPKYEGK
Focal adhesion kinase (UniProt Q05397), sequence (Q05397 whole entry): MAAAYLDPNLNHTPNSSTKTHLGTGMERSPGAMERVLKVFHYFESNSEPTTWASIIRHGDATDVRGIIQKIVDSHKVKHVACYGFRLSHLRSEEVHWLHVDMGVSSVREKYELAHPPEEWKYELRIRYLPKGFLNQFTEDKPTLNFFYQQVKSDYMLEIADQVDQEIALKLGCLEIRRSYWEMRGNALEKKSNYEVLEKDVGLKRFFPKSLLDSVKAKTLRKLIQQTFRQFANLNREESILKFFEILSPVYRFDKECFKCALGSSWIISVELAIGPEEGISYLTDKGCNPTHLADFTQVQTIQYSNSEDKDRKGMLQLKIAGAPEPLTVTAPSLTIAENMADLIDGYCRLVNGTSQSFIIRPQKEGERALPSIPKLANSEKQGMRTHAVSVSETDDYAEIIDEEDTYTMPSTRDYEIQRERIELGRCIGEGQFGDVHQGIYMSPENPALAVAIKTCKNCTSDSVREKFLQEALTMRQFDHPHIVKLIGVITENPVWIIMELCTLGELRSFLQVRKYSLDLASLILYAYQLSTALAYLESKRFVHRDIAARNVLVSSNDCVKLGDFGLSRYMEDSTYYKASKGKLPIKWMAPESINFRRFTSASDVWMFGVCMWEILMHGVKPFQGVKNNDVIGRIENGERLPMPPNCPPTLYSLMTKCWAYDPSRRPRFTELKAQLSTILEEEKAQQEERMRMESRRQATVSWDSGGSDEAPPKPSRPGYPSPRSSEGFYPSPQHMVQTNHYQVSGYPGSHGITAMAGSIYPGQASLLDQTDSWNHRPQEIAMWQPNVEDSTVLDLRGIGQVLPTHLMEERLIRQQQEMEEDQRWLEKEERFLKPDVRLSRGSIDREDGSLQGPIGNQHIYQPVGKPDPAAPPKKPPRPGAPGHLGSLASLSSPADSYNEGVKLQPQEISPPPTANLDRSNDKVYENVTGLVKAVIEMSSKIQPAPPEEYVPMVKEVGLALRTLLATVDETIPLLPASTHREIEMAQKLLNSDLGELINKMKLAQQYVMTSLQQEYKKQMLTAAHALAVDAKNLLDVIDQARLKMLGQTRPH
Focal adhesion kinase (from UniProt Q05397 1-1052) (enzyme), sequence (Q05397 whole entry): as above
phosphorylated Nephrin, sequence (O60500 23-1241): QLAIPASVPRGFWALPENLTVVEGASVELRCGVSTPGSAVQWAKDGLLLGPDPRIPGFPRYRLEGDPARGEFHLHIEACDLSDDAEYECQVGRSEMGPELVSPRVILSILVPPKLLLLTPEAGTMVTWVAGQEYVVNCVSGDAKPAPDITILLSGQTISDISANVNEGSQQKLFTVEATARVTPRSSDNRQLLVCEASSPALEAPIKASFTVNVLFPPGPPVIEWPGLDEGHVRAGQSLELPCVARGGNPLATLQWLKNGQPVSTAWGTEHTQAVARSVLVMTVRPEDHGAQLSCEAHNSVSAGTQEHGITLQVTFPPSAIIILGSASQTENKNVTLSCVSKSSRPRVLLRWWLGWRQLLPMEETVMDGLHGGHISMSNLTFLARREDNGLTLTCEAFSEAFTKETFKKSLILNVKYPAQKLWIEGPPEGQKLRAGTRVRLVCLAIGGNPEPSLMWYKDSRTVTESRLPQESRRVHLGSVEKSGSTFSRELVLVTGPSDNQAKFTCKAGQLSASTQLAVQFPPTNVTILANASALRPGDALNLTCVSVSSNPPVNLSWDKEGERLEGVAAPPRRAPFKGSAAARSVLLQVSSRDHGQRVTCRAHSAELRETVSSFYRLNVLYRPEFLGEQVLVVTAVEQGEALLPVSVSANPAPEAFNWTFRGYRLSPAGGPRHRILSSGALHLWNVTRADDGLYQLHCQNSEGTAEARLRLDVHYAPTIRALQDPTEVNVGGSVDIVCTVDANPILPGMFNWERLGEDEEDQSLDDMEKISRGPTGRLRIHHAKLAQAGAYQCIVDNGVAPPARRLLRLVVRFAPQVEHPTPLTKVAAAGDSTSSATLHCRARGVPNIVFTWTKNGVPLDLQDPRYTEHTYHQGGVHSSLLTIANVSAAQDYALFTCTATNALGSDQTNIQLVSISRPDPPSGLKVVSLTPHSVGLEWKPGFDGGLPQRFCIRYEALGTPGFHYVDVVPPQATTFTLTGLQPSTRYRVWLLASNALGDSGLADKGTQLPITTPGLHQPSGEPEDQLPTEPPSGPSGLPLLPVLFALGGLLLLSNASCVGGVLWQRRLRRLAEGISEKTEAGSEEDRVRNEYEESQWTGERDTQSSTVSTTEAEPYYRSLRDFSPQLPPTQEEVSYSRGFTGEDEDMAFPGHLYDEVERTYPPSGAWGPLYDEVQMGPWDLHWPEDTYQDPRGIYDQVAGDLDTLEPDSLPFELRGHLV
N-WASP, sequence (O00401 whole entry): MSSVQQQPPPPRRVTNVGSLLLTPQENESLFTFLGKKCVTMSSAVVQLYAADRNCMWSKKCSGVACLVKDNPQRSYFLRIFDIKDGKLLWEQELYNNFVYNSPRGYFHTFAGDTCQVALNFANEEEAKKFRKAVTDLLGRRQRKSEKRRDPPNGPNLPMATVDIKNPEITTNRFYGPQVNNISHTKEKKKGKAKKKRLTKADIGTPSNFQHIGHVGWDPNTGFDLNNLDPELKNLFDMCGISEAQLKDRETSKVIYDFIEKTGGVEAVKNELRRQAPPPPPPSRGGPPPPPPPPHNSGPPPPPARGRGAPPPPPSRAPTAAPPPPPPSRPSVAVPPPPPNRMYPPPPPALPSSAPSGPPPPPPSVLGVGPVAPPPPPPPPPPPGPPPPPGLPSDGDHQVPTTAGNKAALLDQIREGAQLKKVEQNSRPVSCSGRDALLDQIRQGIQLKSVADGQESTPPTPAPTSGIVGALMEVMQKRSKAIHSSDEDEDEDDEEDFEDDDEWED

solution turbidity (absorbance at 350 nm) with increasing concentrations of FAK; concentration from which turbidity rises (Focal adhesion kinase [1]): 100 nM
Substance: Focal adhesion kinase (from UniProt Q05397 1-1052) (enzyme)

kindlin partition coefficient (PC) in droplets of 5 uM each phosphorylated Nephrin, Nck and N-WASP with 1 uM kindlin (10% Alexa546), lacking pCas (N-WASP): 1
kindlin partition coefficient (PC) in droplets of 5 uM each phosphorylated Nephrin, Nck and N-WASP with 1 uM kindlin (10% Alexa546), lacking pCas (Nck): 1
kindlin partition coefficient (PC) in droplets of 5 uM each phosphorylated Nephrin, Nck and N-WASP with 1 uM kindlin (10% Alexa546), lacking pCas (phosphorylated Nephrin): 1
Substance: His6-sumo-kindlin (from UniProt Q96AC1 1-680) (natural protein)

FAK enrichment (partitioning) in droplets, 1 uM FAK with 1 uM paxillin against 1 uM FAK alone (Focal adhesion kinase [2]): 2 fold
Substance: Paxillin (from UniProt P49023 1-591) (natural protein)

integrin-GFP partition coefficient (PC) in droplets of 1 uM each pCas, Nck, N-WASP, FAK, paxillin and β1 integrin tail with 1 uM kindlin (PC = 1.2 without kindlin) (His6-sumo-kindlin): 3
Substance: β1 integrin cytoplasmic tail-GFP (from UniProt P05556 752-798) (domain or fragment)
